Results from patent US20030139374A1 (University of Texas, published 2003).

Experiments:
[1] = system: cancer patients having progressive disease; settings: human, in vivo; cited from earlier work
TNFα = settings: cited from earlier work
[2] = system: IL-1α-stimulated bEnd.3 cells; test: Factor Xa formation by coaguligand on bEnd.3 cells, chromogenic assay; format: cell-based, mouse; settings: 10 μg per ml
Description: The ability of Annexin V to affect Factor Xa formation induced by coaguligand was determined by a chromogenic assay. […] Annexin V was added at concentrations ranging from 0.1 to 10 μg/ml and cells were incubated for 30 min. before addition of diluted Proplex T. The amount of Factor Xa generated in the presence or absence of Annexin V was determined. Each treatment was performed in duplicate and repeated at least twice.

L540 Hodgkin tumors = test: Annexin V inhibition of coaguligand-induced thrombosis in vivo; design: species or system SCID mice
Description: The ability of Annexin V to inhibit coaguligand-induced thrombosis in vivo was examined in L540 Hodgkin-bearing SCID mice.
Four hours after the last injection mice were anesthetized and perfused with heparinized saline. Tumors were removed, fixed with 4% formalin, paraffin-embedded and stained with hematoxylene-eosin. The number of thrombosed and non-thrombosed blood vessels were counted and the percentage of thrombosis was calculated.

[3] = system: HT29 human colorectal carcinomas; test: Anti-tumor effects, HT29; format: in vivo, Nu/nu mice; settings: large (1200 mm^3) tumors
Description: Anti-tumor effects were also observed in mice bearing HT29 human colorectal carcinomas. Nu/nu mice bearing large (1200 mm^3) tumors on their flanks were injected intravenously with tTF219 or PBS (control), and growth of the tumors was monitored each day for 10 days. The tumors in the tTF219 treated mice discontinued growth for about 7 days after treatment, whereas the tumors in mice treated with PBS continued to grow unchecked.

[4] = system: HT29 (human colorectal carcinoma) xenograft; test: HT29 xenograft necrosis after tTF constructs with Factor VIIa; design: species or system BALB/c nu/nu mice; settings: mouse, in vivo, iv
A20 lymphoma cells = test: In vitro coagulation assay on A20 cells with B21-2/10H10 capture antibody; format: cell-based, mouse
3LL mouse lung carcinoma = test: In vivo tumor thrombosis, 3LL; design: species or system C57BL/6 mice; settings: large (>800 mm^3) tumors
Excerpt: (§1) Tumor test systems were of four types: i) 3LL mouse lung carcinoma growing subcutaneously in C57BL/6 mice; ii) C1300 mouse neuroblastoma growing subcutaneously in BALB/c nu/nu mice; iii) HT29 human colorectal carcinoma growing subcutaneously in BALB/c nu/nu mice; and iv) C1300 Muγ mouse neuroblastoma growing subcutaneously in BALB/c nu/nu mice. The C1300 Muγ tumor is an interferon-γ secreting transfectant derived from the C1300 tumor (Watanabe et al, 1989).
(§2) To establish tumors, 10^6 to 1.5×10^7 tumor cells were injected subcutaneously into the right anterior flank of the mice. When tumors had grown to various sizes, mice were randomly assigned to different study groups. […] Fab′, or bispecific antibody. Other mice received equivalent quantities IgG, Fab′ or bispecific antibody alone. The injections were performed slowly into one of the tail veins over approximately 45 seconds, usually followed by 200 μl of saline.
(§3) Twenty-four hours after being injected with tTF or immunoglobulin-tTF conjugates, the mice were anesthetized with metophane and were exsanguinated by perfusion with heparinized saline. Tumors and normal tissues were excised and immediately fixed in 3% (v/v) formalin. Paraffin sections were cut and stained with hematoxylin and eosin. Blood vessels having open lumens containing erythrocytes and blood vessels containing thrombi were counted. […]

[5] = system: C1300 mouse neuroblastoma; test: In vivo tumor thrombosis, C1300; design: species or system BALB/c nu/nu mice; settings: large tumors (>1000 mm^3); 24 hours after injection
Excerpt: as §1, §2, §3

[6] = system: C1300 Muγ mouse neuroblastoma; test: In vivo tumor thrombosis, C1300 Muγ; design: species or system BALB/c nu/nu mice
Excerpt: as §1, §2, §3

C1300 Muγ tumors = test: Anti-tumor effects (tumor growth), C1300 Muγ; format: in vivo, nu/nu mice; settings: 300 mm^3 at start
Description: The tumor test systems were: i) L540 human Hodgkin's disease tumors growing in SCID mice; ii) C1300 Muγ (interferon-secreting) neuroblastoma growing in nu/nu mice; iii) H460 human non-small cell lung carcinoma growing in nu/nu mice. To establish solid tumors, 1.5×10^7 tumor cells were injected subcutaneously into the right anterior flank of SCID or BALB/c nu/nu mice (Charles River Labs., Wilmingham, Mass.). When the tumors had grown to various diameters, mice were assigned to different experimental groups, each containing 4 to 9 mice.
Other mice received equivalent quantities of bispecific antibody alone. The injections were performed over ˜45 seconds into one of the tail veins, followed by 200 μl of saline. The infusions were repeated six days later. Perpendicular tumor diameters were measured at regular intervals and tumor volumes were calculated.
Mice bearing small (300 mm^3) C1300 Muγ tumors were injected intravenously with 16-20 μg tTF219. The treatment was repeated one week later. […] One week after the second treatment with tTF219, tumors were 60% of the size of tumors in mice receiving diluent alone. The greater effectiveness of the second injection probably derives from the greater thrombotic action of tTF219 on vessels in large tumors, observed above. […]

## NC(=O)c1nnn(Cc2cc(Cl)c(C(=O)c3ccc(Cl)cc3)c(Cl)c2)c1N [CAI, carboxyamidotriazole]
[1]
  patients with disease stabilization: 49%

## Cc1ccc2c(=O)c3cccc(CC(=O)O)c3oc2c1C [DMXAA]
TNFα
  fold less effective than endotoxin in inducing TNFα: 20 fold

B1: Annexin V: binds to PS with high affinity (protein, UniProt P08758 2-320, looked up)
Annexin A5: AQVLRGTVTDFPGFDERADAETLRKAMKGLGTDEESILTLLTSRSNAQRQEISAAFKTLFGRDLLDDLKSELTGKFEKLIVALMKPSRLYDAYELKHALKGAGTNEKVLTEIIASRTPEELRAIKQVYEEEYGSSLEDDVVGDTSGYYQRMLVVLLQANRDPDAGIDEAQVEQDAQALFQAGELKWGTDEEKFITIFGTRSVSHLRKVFDKYMTISGFQIEETIDRETSGNLEQLLLAVVKSIRSIPAYLAETLYYAMKGAGTDDHTLIRVMVSRSEIDLFNIRKEFRKNFATSLYSMIKGDTSGDYKKALLLLCGEDD
[2]
  inhibition of factor Xa production: 58%
L540 Hodgkin tumors; 100 μg Annexin V 2 hours before 40 μg coaguligand
  effect of pre-treatment on coaguligand-induced anti-tumor effects: completely abolished
L540 Hodgkin tumors; 100 μg Annexin V alone
  effect on tumor morphology: did not alter tumor morphology

B2: tTF219: residues 1-219 of TF plus an additional glycine at the N-terminus (protein)
chain: GSGTTNTVAAYNLTWKSTNFKTILEWEPKPVNQVYTVQISTKSGDWKSKCFYTTDTECDLTDEIVKDVKQTYLARVFSYPAGNVESTGSAGEPLYENSPEFTPYLETNLGQPTIQSFEQVGTKVNVTVEDERTLVRRNNTFLSLRDVFGKDLIYTLYYWKSSSSGKKTAKTNTNEFLIDVDKGENYCFSVQAVIPSRTVNRKSTDSPVECMGQEKGEFRE
[3]
  time tumors discontinued growth after treatment: about 7 days
[4]
  necrosis, average area as percentage of total tumor area: some necrosis
A20 lymphoma cells; 10^−10 M tTF219, absence of Factor VIIa
  coagulation time: 60 s
A20 lymphoma cells; 10^−10 M tTF219, presence of 13.5 nM Factor VIIa
  coagulation time: 20 s
3LL mouse lung carcinoma
  tumor vessels thrombosed, average: 62%
[5]
  thrombosis of tumor vessels: virtually all vessels were thrombosed
[6]; 24 hours after injection
  thrombosis of tumor vessels: practically all vessels in all regions of the tumor were thrombosed
[6]; small (<500 mm^3) C1300 and C1300 Muγ
  effect on vessels in small tumors: largely unaffected
C1300 Muγ tumors; 16-20 μg i.v., repeated one week later, one week after the second treatment
  tumor size relative to mice receiving diluent alone: 60%
C1300 Muγ tumors; treatment repeated 6 days later, fourteen days after the first injection
  tumor size relative to controls receiving diluent alone: 75%
